Legend:
[1] = biological target: FcγRIa, recombinant extracellular domain (UniProt P12314); assay: SPR; Biacore 3000; extracellular domain of FcγRIa immobilized covalently or through enzymatic, site-directed biotinylation; antibody as analyte; kinetic analysis at pH 7.4
[2] = biological target: FcRn, recombinant extracellular domain (UniProt P55899); assay: SPR; Biacore 3000; extracellular domain of FcRn immobilized covalently or through enzymatic, site-directed biotinylation; antibody as analyte; steady-state analysis at pH 6.0
Sequence of UniProt P55899 (P55899 whole entry, looked up, the tested form may be a part): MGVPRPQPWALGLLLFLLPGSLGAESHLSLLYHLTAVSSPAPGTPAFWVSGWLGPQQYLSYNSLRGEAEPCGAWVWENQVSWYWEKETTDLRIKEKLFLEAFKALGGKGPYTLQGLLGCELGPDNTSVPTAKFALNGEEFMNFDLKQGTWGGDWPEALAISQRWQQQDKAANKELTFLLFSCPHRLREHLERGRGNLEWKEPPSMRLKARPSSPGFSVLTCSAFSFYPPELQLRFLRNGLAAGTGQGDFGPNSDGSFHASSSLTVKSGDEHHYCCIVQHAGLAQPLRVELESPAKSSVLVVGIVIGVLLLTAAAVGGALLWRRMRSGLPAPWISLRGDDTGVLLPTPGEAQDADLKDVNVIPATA

Sequence of UniProt P12314 (P12314 16-292): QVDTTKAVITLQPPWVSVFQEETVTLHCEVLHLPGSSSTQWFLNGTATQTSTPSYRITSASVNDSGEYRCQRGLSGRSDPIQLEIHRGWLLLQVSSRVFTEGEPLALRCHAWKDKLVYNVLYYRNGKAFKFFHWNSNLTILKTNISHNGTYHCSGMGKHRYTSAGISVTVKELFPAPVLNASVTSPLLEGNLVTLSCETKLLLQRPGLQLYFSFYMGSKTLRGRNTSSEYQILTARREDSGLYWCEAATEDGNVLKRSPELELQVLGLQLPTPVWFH

“human IgG1 antibody Variant FS (F241S F243S)” showed a Kd [1] of 0.074 µM, a koff [1] of 0.0021 s⁻¹ and a kon [1] of 29000 M⁻¹ s⁻¹. The Kd [2] was 2.7 µM.
